Where a name gives a salt, the structure may show the parent alone. Read-outs that look alike come from different tables or passages of the source.
Tests used:
[1] = system: immortalized megakaryocytes; settings: for synergistic effect on number and function of platelets produced, ROCK inhibitor combined with SR-1: in combination with SR-1, compared with each alone (FIG. 9)
Method: Immortalized megakaryocytes obtained according to the method described in section 1 were washed twice with PBS(−) followed by removing the doxycycline to terminate overexpression, static culturing after disseminating the cells in a 6-well plate at 2 mL/well and a seeding density of 1×10^5 cells/mL, and then shake culturing in an E125 flask at 25 mL/flask and a seeding density of 1×10^5 cells/m L.
The medium was obtained by adding the following components to IMDM serving as the basal medium (concentrations indicate final concentrations).
Culturing was implemented under conditions of 37° C., 5% CO2 and 20% O2. The numbers of platelets and PAC-1 positive cells were measured using the same method as described in the above-mentioned section 2.

[2] = system: immortalized megakaryocyte line (SeV2-MKCL)
Method: Culturing was implemented by disseminating the cells at 2 mL/well in a 6-well plate at a seeding concentration of 1×10^5 cells/mL followed by static culturing in the medium indicated below.
After simultaneously adding SR-1 at the concentrations shown in FIG. 1 and culturing for 7 days, the number and function of the platelets were measured. The measurement method was as shown below.
The culture supernatant was gently suspended using a 1 mL Pipetman 7 days after culturing to terminate gene expression. 200 μL of the culture broth were dispensed into a 5 mL sample tube followed by staining with the antibodies indicated below.
Measurement was carried out using FACS Verse manufactured by Becton Dickinson and Company 30 minutes after the reaction. 400 μL of Tyrode's buffer Ca^+ were added immediately before measurement to bring to a total volume of 600 μL. This total volume of 600 μL was used for the FACS measurement sample.
The number of particles positive for CD42a and CD42b were considered to represent the number of platelets, and the ratio of the mean fluorescence intensities (MFI) of PAC-1 and CD62p in this platelet fraction before and after stimulation was calculated.

[3] = system: immortalized megakaryocytes; test: shRNA knockdown in immortalized megakaryocytes during overexpression: number of CD41a-positive cells; format: cell-based, human; settings: during overexpression of BMI1, c-MYC and BCL-xL (FIG. 17)
From the text: Genes of shRUNX1 with GFP, shHMGA2 with GFP and SCRAMBLE with GFP were introduced into the immortalized megakaryocytes prepared in the above-mentioned section 1 using a viral vector. The cells introduced with the above genes (GFP-positive cells) were then sorted.

[4] = system: immortalized megakaryocytes; test: Electron microscopy of shRNA-introduced megakaryocytes cultured with SR-1 and Y27632; format: cell-based, human; settings: DOX-free medium containing SR-1 and Y27632 (FIG. 21)
Method: Cells introduced with genes shRUNX1, shHMGA2 and shSCRAMBLE obtained in section 9 above were cultured in DOX-free megakaryocyte medium containing SR-1 and Y27632 and observed with an electron microscope.

[5] = system: immortalized megakaryocytes; test: shRNA knockdown: multinucleation and platelet production after terminating overexpression of cMYC, BMI1 and BCL-xL; format: cell-based, human
Method: Next, the production of platelets was measured after having terminated overexpression of cMYC, BMI1 and BCL-xL genes using the method described in the aforementioned section 1-5.

C[C@@H](N)c1ccc(C(=O)Nc2ccnc3[nH]ccc23)cc1 [Y39983]
synergistic effect on number and function of platelets produced, ROCK inhibitor combined with SR-1 [1]: prominent synergistic effect that exceeded that of Y27632

Cc1ccccc1N=Nc1ccc(NC(=O)c2ccnn2C)c(C)c1 [CH-223191, 2-methyl-2H-pyrazole-3-carboxylic acid (2-methyl-4-o-tolylazo-phenyl)-amide]
synergistic effect on number of platelets produced, AhR antagonist combined with Y27632 ([1]; in combination with Y27632 (FIG. 10)): prominent synergistic effects that exceeded that of SR-1

O=S(=O)(c1cccc2cnccc12)N1CCCNCC1 [fasudil hydrochloride]
synergistic effect on number and function of platelets produced, ROCK inhibitor combined with SR-1 ([1]; hydrochloride): concentration-dependent synergistic effects comparable to that of Y27632

C[C@H]1CNCCCN1S(=O)(=O)c1cccc2cncc(F)c12 [ripasudil]
synergistic effect on number and function of platelets produced, ROCK inhibitor combined with SR-1 [1]: concentration-dependent synergistic effects comparable to that of Y27632

CC(C)n1cnc2c(NCCc3ccc(O)cc3)nc(-c3csc4ccccc34)nc21 [SR-1, 4-(2-(2-(benzo[b]thiophen-3-yl)-9-isopropyl-9H-purin-6-ylamino)ethyl)phenol]
duration of culturing after which highly functional platelets tend to be obtained ([2]; AhR antagonist added after terminating overexpression): 5 days | platelet function ([2]; compared with the absence of SR-1 (FIG. 1)): higher | number of platelets bound by PAC-1 and anti-CD62p antibody ([2]; static culturing 7 days, no feeder cells, addition of SR-1 (FIG. 1)): confirmed to increase

B1: shRUNX1: shRNA against RUNX1, target sequence SEQ ID NO: 3, shRNA sequence SEQ ID NO: 4 (nucleic acid)
chain: GATCCCCACTTTCCAGTCGACTCTCATTCAAGAGATGAGAGTCGACTGGAAAGTTTTTTGGAAAA
number of CD41a-positive cells [3]: increase | cell morphology by electron microscopy [4]: numerous small nucleated cells | development of demarcation membrane systems (DMS) in the cells [4]: lacking | formation of secretory granules [4]: only be formed to a moderate degree

B2: shHMGA2: shRNA against HMGA2, target sequence SEQ ID NO: 5, shRNA sequence SEQ ID NO: 6, introduced with viral vector (nucleic acid)
chain: GATCCCCATGAGACGAAATGCTGATGTATTTCAAGAGAATACATCAGCATTTCGTCTCATTTTTTGGAAAA
number of CD41a-positive cells [3]: decrease | number of platelets produced per megakaryocyte ([5]; after terminating overexpression (bottom of FIG. 19)): increase dramatically | megakaryocyte multinucleation ([5]; after terminating overexpression (top of FIG. 19)): considerable promotion | cell morphology by electron microscopy [4]: multinucleated and enlarged cells were observed | development of demarcation membrane systems (DMS) in the cells [4]: formation of a DMS and secretory granules was observed | formation of secretory granules [4]: formation of a DMS and secretory granules was observed
